The results in this text go back to doi:10.1101/2022.08.12.503774 (bioRxiv, 2022).

This series deals with the molecule itself. The series is described as follows: cryo-EM structure.

B1: MinCys EAAT3 K269C/W441C crosslinked using Hg2+ (EAAT3-X) (natural protein, human, UniProt P43005 1-524, looked up)
chain: MGKPARKGAEWKRFLKNNWVLLSTVAAVVLGITTGVLVREHSNLSTLEKFYFAFPGEILMRMLKLIILPLIISSMITGVAALDSNVSGKIGLRAVVYYFATTLIAVILGIVLVVSIKPGVTQKVGEIARTGSTPEVSTVDAMLDLIRNMFPENLVQAAFQQYKTKREEVKPPSDPEMTMTEESFTAVMTTAISKTKTKEYKIVGMYSDGINVLGLIVFALVFGLVIGKMGEKGQILVDFFNALSDATMKIVQIIMWYMPLGILFLIAGCIIEVEDWEIFRKLGLYMATVLTGLAIHSIVILPLIYFIVVRKNPFRFAMGMAQALLTALMISSSSATLPVTFRCAEENNQVDKRITRFVLPVGATINMDGTALYEAVAAVFIAQLNDLDLGIGQIITISITATSASIGAAGVPQAGLVTMVIVLSAVGLPAEDVTLIIAVDCLLDRFRTMVNVLGDAFGTGIVEKLSKKELEQMDVSSEVNIVNPFALESTILDNEDSDTKKSYVNGGFAVDKSDTISFTQTSQF
modifications: Hg2+ crosslink between C269 and C441
B1: the binding result is “binds”.
